# Data taken from US20090099029A1, “Methods and substrates for conducting assays” (Invitrogen Corporation, priority 2005, published 2009).
# Tested on: 39 kinases (Table 4)
# Experiment: not given
# Settings: known general specificities of the inhibitors; cited from earlier work
row,Compound,General Specificity
1,Oc1ccc(-c2nc(-c3ccncc3)c(-c3ccc(F)cc3)[nH]2)cc1 [SB 202190],Serine/threonine

# Tested on: kinases of Table 6 on Myelin Basic Protein (MBP)
# Experiment: Kinase assay using MBP substrate, ProQ Diamond stain (Table 6)
# Assay type: biochemical
# Settings: kinase printed on MBP-coated slide; 20 uM ATP, 30° C.; ProQ Diamond Microarray Stain; graded Strong/Weak/Negative
# Method: In this illustrative example, four-well slides were designed with a hydrophobic mask surrounding 4-wells of aldehyde- or epoxy-coated glass (smooth or ES grade; Erie Scientific (Portsmouth, N.H.)). […] Bovine, dephosphorylated, Myelin Basic Protein (MBP) was purchased from Upstate Biotechnology (#13-110). MBP was diluted to 1 mg/ml in PBS, applied to the slide surface, covered with a coverslip, and left overnight at 4° C. to coat the slide with the MBP. Slides were washed 3 times with water and spun dry before printing.
# Kinases were purchased from Panvera (Invitrogen, Carlsbad, Calif.), diluted in printing buffer (50 mM Tris pH 7.5, 25% glyercol, 0.05% TritonX-100, 2 mM DTT) and deposited using a GeneMachine OmniGrid100. Slides were stored at −20° C.
# Reactions were performed following removal of the slide from the freezer. Reaction buffer (20 mM HEPES pH 7.5, 4 mM MgCl2, 2 mM DTT, 20 uM ATP, 5% DMSO) was added with or without inhibitor, a coverslip applied, and the slide placed at 30° C. for the appropriate reaction time. The slide was washed with water to stop the reaction (3 times) and spun dry. ProQ Diamond Microarray Stain (Invitrogen #P33706) was applied, covered with a coverslip, and the slide was incubated in the dark at room temperature for 30 minutes. The slide was destained and washed three times with water, and spun dry.
row,Compound,MBP Kinase Activity
1,ABL1,Weak
2,ADRBK1(GRK2),Negative
3,AKT1,Strong
4,BLK,Weak
5,CDK5/p35,Strong
6,CHEK2,Strong
7,CLK1,Strong
8,CLK3,Strong
9,CLK4,Negative
10,CSNK1E(CK1eps),Negative
11,CSNK1G1(CK1gamma1),Negative
12,CSNK1G2,Negative
13,CSNK1G3,Weak
14,CSNK2A1(CK2alpha1),Strong
15,EPHA7,Weak
16,ERBB2,Negative
17,FGFR1,Strong
18,FGR,Weak
19,FYN,Strong
20,GRK5,Negative
21,GSK3B,Negative

row,Compound,MBP Kinase Activity
1,HCK,Strong
2,IKBKB,Weak
3,INSR,Strong
4,KDR(VEGFR2),Strong
5,LCK,Strong
6,LYNA,Weak
7,MAP2K1(MEK1),Negative
8,MAP2K2(MEK2),Negative
9,MAP4K5(KHS1),Negative
10,MAPK1(ERK2),Strong
11,MAPK3(ERK1),Strong
12,MAPKAPK2,Strong
13,MLCK,Negative
14,MST4,Negative
15,NEK6,Negative
16,NEK7,Negative
17,NTRK1,Strong
18,NTRK2,Strong
19,NTRK3,Strong
20,PHKG1,Negative
21,PIM1,Strong

row,Compound,MBP Kinase Activity
1,PIM2,Weak
2,PKN1(PRK1),Strong
3,PLK1,Negative
4,PRKCA,Strong
5,PRKCB1,Strong
6,PRKCB2,Strong
7,PRKCD,Strong
8,PRKCG,Strong
9,PRKCI,Strong
10,PRKCQ,Strong
11,PTK6(BRK),Strong
12,RPS6KA3(RSK2),Strong
13,RPS6KA5(MSK1),Weak
14,STK6(AuroraA),Weak
15,STK24(MST3),Weak
16,STK25(YSK1),Strong
17,TBK1,Strong
18,WEE1,Negative
19,YES1,Weak
